Data taken from paper PMC8867601, “The TERB1 MYB domain suppresses telomere erosion in meiotic prophase I”.
Substitutions are numbered along the chain they refer to.

Columns and labels:
Details in all cases: protein: recombinant; tags: none after Ulp1 cleavage of His-Smt3; label: 32P (T4 PNK)
[1] = target: T1, hTERB1-MYB H716R (Homo sapiens, UniProt Q8NA31 666-719, H716R); experiment: EMSA; 150 nM probe; 50 mM Tris-HCl pH 8.0, 6.5% glycerol, 20 mM NaCl, 5 mM DTT, 150 nM probe, 10 ul, 30 min on ice; 4-20% TBE native gel
T1 sequence: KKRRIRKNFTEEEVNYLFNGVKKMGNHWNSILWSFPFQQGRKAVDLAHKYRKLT

[2] = target: T2, hTERB1-MYB H713D (Homo sapiens, UniProt Q8NA31 666-719, H713D); experiment: as above
T2 sequence: T1 sequence with H48D, R51H

[3] = target: T3, hTERB1-MYB A712K (Homo sapiens, UniProt Q8NA31 666-719, A712K); experiment: as above
T3 sequence: T1 sequence with A47K, R51H

[4] = target: T4, hTERB1-MYB triple mutant (Homo sapiens, UniProt Q8NA31 666-719, A712K;H713D;H716R); experiment: EMSA; 2-8 uM protein, 150 nM probe; 50 mM Tris-HCl pH 8.0, 6.5% glycerol, 20 mM NaCl, 5 mM DTT, 150 nM probe, 10 ul, 30 min on ice; 4-20% TBE native gel
T4 sequence: T1 sequence with A47K, H48D

Measured: binding result

B1: dsDNA_telo_8-mer (TTAGGG)8 (dsDNA)
DNA 1: TTAGGGTTAGGGTTAGGGTTAGGGTTAGGGTTAGGGTTAGGGTTAGGG
DNA 2: CCCTAACCCTAACCCTAACCCTAACCCTAACCCTAACCCTAACCCTAA
no binding: [1] | [2] | [3] | [4]
